Biological target: the molecule itself
Test: cross-linking

B1: full-length rabies virus phosphoprotein (P), C-terminal His-tagged (natural protein)
chain: MSKIFVNPSAIRAGLADLEMAEETVDLINRNIEDNQAHLQGEPIEVDNLPEDMKRLHLDDEKSSNLGEMVRVGEGKYREDFQMDEGEDPNLLFQSYLDNVGVQIVRQMRSGERFLKIWSQTVEEIVSYVTVNFPNPPRRSSEDKSTQTTGRELKKETTSAFSQRESQPSKARMVAQVAPGPPALEWSATNEEDDLSVEAEIAHQIAESFSKKYKFPSRSSGIFLYNFEQLKMNLDDIVKEAKNVPGVTRLAHDGSKIPLRCVLGWVALANSKKFQLLVEADKLSKIMQDDLNRYTSC
B1: binds.

Reference: paper PMC7173060 (Journal of Molecular Biology, 2004)
